According to the nanobody polyreactivity screen of Harvey et al. (2022):

Test: yeast display, Sf9 membrane polyspecificity reagent, FACS + sequencing; frameworks hold sequencing errors
How it was run: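 Nanobodies from a synthetic yeast display library (Saccharomyces cerevisiae BJ5465), induced 36–48 hours with galactose, were stained 1 hour at 4 °C with 10% biotinylated, detergent-solubilized Sf9 membrane reagent, enriched on streptavidin microbeads, then FACS-sorted. Anti-HA (expression) and streptavidin (reagent binding) fluorescence set low and high (top ~1%) gates. Polyreactivity labels come from the gate of origin. Genes were colony-PCR amplified, MiSeq 2 × 250 sequenced and filtered by CDR length.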

Row | Sequence | polyreactivity (PSR sort gate)
1 | QVQLVESGGGLVQAGGSLRLSCAASGIFYRYAMGWYRQAPGKEREFVAAISSTGGSTYYADSVKGRFTISRDNAKNSVYLQMNSLKPEDTAVYYCAKRGSRSGRSDYWGQGTQVTVSS | low polyreactivity
2 | QVQLVESGGGLVQAGGSLRLSCAASGRIFSGNAMGWYRQAPGKERELVAAISWGGGRTYYADSVKGRFTISRDNAKNTVYLQMNSLKPEDTAVFYCNTVRQRARFTKVDYWGQGTQVTVSS | high polyreactivity
3 | QVQLVESGGGLVQAGGSLRLSCAASGSTFTDYTMGWYRQAPGKERELVARIRSRGARTYYADSVKGRFTISRDNAKNTVYLQMNSLKPEDTAVYYCAAAGVRSYAGDYWGQGTQVTVSS | high polyreactivity
4 | QVQLVESGGGLVQAGGSLRLSCAASGSTFKQYAMGLYRQAPGTERELVAVITWRGGRTYYADSVKGRFTISRDYAKNTVYLQMNSLKPEDTAVYYCAADYFSFIPGYDYWGQGTQVTVSS | high polyreactivity
5 | QVQLEESGAGLVQAGGSLRLSCAASGITFYYNDMGWYRQAPGKEREMVASISGDGGSTYYADSVKGRFTISRDNAKNTVYLQMNSLKPEDTAVFYCAASAGYYEVLYDYWGQGTQVTVSS | low polyreactivity
6 | QVQLVESGGGLVQAGGSLRLSCAASGLTFGYYAMGWYRQAPGKERELVAGISGSGGSTYYADSVKGRFTISRDNAKNTLYLQMNSLKPEDTAVYYCNAEARYTGFAYSYFNSDYWGQGTQVTVSS | low polyreactivity
7 | QVQLVESGGGLDQAGGSLRLSCAASGSIFPPYAMGWYSQAPGKERELVATITIRGGSTYYADSVKGRFTISRDNAKNTVYLQMNSLKPEDTAVYYCAADYTKYYRRYYYWGQGTQVTVSS | high polyreactivity
8 | QVQLQESGGGLVQAGGSLRLSCAASGTNFYKDDMGWYRQAPGKEREFVAGIDRGGTTNCAGSVKGRFTISRDNAKNTVYLQMISLKPEDTAVYYCAAYYPDIYPFIYRGQGTQVTVSS | high polyreactivity
9 | QVQLVESGGGLVQAGGSLRLSCAASGSTFTIYAMGWYRQAPGTERELVATIRAGGGRTSYADSVKGRFTISRDNAKNTVYLQMNSLKPEETAVYYCAVYVRPTRYGYWGQGTQVTVSS | high polyreactivity
10 | QVQLQESGGGLVQACGSLRLSCAASGYIFSHQYMGWYRQAPGKERELVASISPGATTNYADSVKGRFTISRDNAKNTVYLQMNSLKPEDTAVYYCARRYRPKYGYWGQGTQVTVSS | high polyreactivity
11 | QVQLVESGGGLVQARGRLRLSCSASGRTFYGYAMGWYRQATGKERELVASISWSTGSTHYADSVKGRFTISRDNAKNTVYLQMNSLKPEDTAVYYCAAPFWRDSYVQIDYDFWGQGTQVTVSS | low polyreactivity
12 | QVQLVESGGGLVQAGGSLRLSCAASGSTFPWNAMGWYRQAPGKERELDAAIRTGGGRTYYADSVKGRFTISRDNAKNTVYLQMNSLKPEDTAVYYCNAYQSSGRYRNSYGYWGQGTQVTVSS | high polyreactivity
13 | QVQLVESGGGVVQAGGSLRLSSAASGRIIRYYTMGWYRQAPGKERELVAAIRTYGGRTYYADSVKGRFTISRDNAKNSVYLQMNSLKPEDTAVYYCAADGGRPRYDSWGQGTQVTVSS | high polyreactivity
14 | QVQLVESGGGLVQAGGSLRLICAASGRTFRYYTMGWYRQAPGKERELVAAISWRGGSTYYADSVKGRFTISRDNAKNTVYLQMNSLKPEDTAVYYCAAKRPKRYNEGYYWGQGTQVTVSS | high polyreactivity
15 | QVQLVESGGGLVQAGGRLRLSCAASGSIFYGYDMGWYRQAPGKERELVAAITIGGGTTYYADSVKGRFTISRDNAKNTVYLQMNSLKPEDTAVYYCAKTYARPTRVQKYSGEGGYWGQGTQVTVSS | high polyreactivity
16 | QVQLVESGGGLVQAGGSLRLSCAASGRTFGQNAMGWYRQAPGKERELVAAISWRGARTFYADSVKGRFTISRDNAKNTVYLQMNSLKPEDTAVYYCAARYSAYRRNVAYDYWGQGTQVTVSS | high polyreactivity
17 | QVQLVESGGGLVQAGGSLRLSCAASGSTFGINAMGWSRQAPGKERELVAAISWRGGSTYYADSVKGRFTISRDNSKNTVYLQMNSLKPEDTAVYYCAADTFYWVGHYYVETYDYWGQGTQVTVSS | high polyreactivity
18 | QVQLVESGGGLVQAGGSLSLSCAASGNIFWGNAMGWYRQAPGKERELVAAITSIDSSTYYADSVKGRFTISRDNAKNTVYLQMNSLKPEDTAVYYCAADGDWYGYIWQSDDGYDSWGQGTQVTVSS | low polyreactivity
19 | QVQLVESGGGLVQAGGSLRLSCAASGFIFGSNVMGWYRQAPGKERELVAAISRSGGSTYYADSVKGRFTISRDNAKNTVYLQMNSLKPEDTAVYYCNKLAVGRSRTGDYWGQGTQVTVSS | high polyreactivity
20 | QVQLVESGGGLVQAGGSLRLSCAASGFTFARYAMGWYRQAPGKERELVAAMTYRGGSTYYADSVKGRFTISRDNAKNTVYLQMNSLKPEDTAVYYCNAGRLWFPGVPEYDYWGQGTQVTVSS | high polyreactivity
21 | QVQLVESGGGLVQAGGSLRLSCAASGSIFTKYAMGWYRQAPGKERELVAAISWSGVSTYYADSVKGRFTISRDNAKHTVYLQMNSLKPEDTAVYYCNTRRYRSYGTTRYGYWGQGTQLTVSS | high polyreactivity
22 | QVQLVDSGGGLVQAGGSLRLSCAASGGTISQYAMGWYRQAPGKERELVARISRRGGSTSYADSVKGRFTISRDNAKNTVYLQMNSLKPEDTAVYYCNAVRFYGRWRWIMEYWGQGSQVTVSS | high polyreactivity

Row | Sequence | polyreactivity (PSR sort gate)
23 | QVQLVESGGGLLQAGGSLRLSCAASGSIFSRYVMGWYRQAPGKERELVAGISGSGGSTYYADSVKGRFTISRDNAKNTVYLQMNSLKPEDTAVYYCNAATSRLYYNHYTRYNYWGQGTQVTVSS | high polyreactivity
24 | QVQLVESGGGLVQAGGSLRLSCAASGGIFDTNAMGWYRQAPGKEREFVAAITGSGGSTYYADSVKGRFTISRDYAKNSVYLQMNSLKPEDTAVYYCAAPLSYYWVFIVRYGYDYWGQGTQVTVSS | low polyreactivity
25 | QVQLVESGGGLVQAGGSLRLSCAASGRIFSYNAMGWYRQAPGKERELVAAISYSGGRTYYADSVKGRFTISRDNAKNTVYLQMNSLKPEDTAVYYCAAAYGGSLRYTAGYYWGQGTQVTVSS | high polyreactivity
26 | QVQLVESGGGLVQAGGSLRLSCAASGSTFWAYVMGWYRQAPGKERELVASISSGGSTNYADSVKGRFTISRDNAKNTVYLQMNSLKPEDTAVYYCAKRPYPYKYDYWGQGTQVTVSS | high polyreactivity
27 | QVQLVESGGGLVQAGGSLRLSCAASGIIFYRNAMGWYRQAPGKERELVAAISKGGGSTYYADSVKGRFTISRDNAKNTVYLQMNSLKPEDTAVYYCAAKAYTYYARIGFDYWGQGTQVTVSS | high polyreactivity
28 | QVQLVESGGGLVQAGGSLRLSCAASGSTFSTNAMGWYRPAPAKEREFGAAITWSGDSTDYADSVKGRFTISRDNAKNTVYLHMNSLKPEDTAVYYCSAGPFLESYRGYSEMDYWGQGTQVTVSS | low polyreactivity
29 | QVQLVESGGGLVQAGGSLRLSCAASGSTLYPYDMGWYRQAPGKERELVAAIDSGGSTNYADSVKGRFTISRDNAKNTVYLQMNSLKPEDTAVYYCAADASGENDYWGQGTQVTVSS | low polyreactivity
30 | QVQLVESGGGLVQAGGSLRLSCAASGSIFTEKAMGWYRQAPGKERELVATITITGSTNYADSVKGRFTISRDNAKNTVYLQLNSLKPEETAVYYCNADLYIAFSASAYDYWGQGTQVTVSS | low polyreactivity
31 | QVQLVESGGGLVQAGGSLRLSCAASGSIFRRYAMGWNRQAPGKERELVAYISRSGGSTYYADSVKGRFTISRDNAKNTVYLQMNRLKPEDTAVYYCAAQRYRTGDSWGQGTQVTVSS | high polyreactivity
32 | QVQLVESGGGLVQAGGSLRLSCAASGNTFVRYDMGWYRQAPGKEREFVAAITASGGSTYADSVKGRFTISRDNAKNTVYLQMNSLKPEDTAVYYCNAGNSSTGVDRYDYWGQGTQVTVSS | low polyreactivity
33 | QVQLVESAGGLVQAGGSLRLSCAPSGRTFYGNAMGWYRQAPGTERELVAAISSRGGSTYYADSVKGRFTISRDNANNTVYLQMNSLKPEDTAVYYCNVANGLSQVYRYNYWGQGTQVTVSS | high polyreactivity
34 | QVHLVESGGGLVQAGGSLRLSCAASGRIFNSYAMGWYRQAPGKERELVAAISRNGGITYYADSVKGRFTISRDNAKNTVYLQMNSLKPEDTAVYYCNADCSRRRYSSDYWGQGTQVTVSS | high polyreactivity
35 | QVQLVESGGGLVQAGGSLRLSCAASGTNVKGWYRQAPGKERELVAAISGSGGSTYYADSVKGRFTISRDNAKNTVYLQMNSLKPEDTAVYYCAADSIQYTARPYDYWGQVTQVTVSS | low polyreactivity
36 | QVQLVESGGGLVQAGGSLRLSCAASGNIFLRYAMGWYRQAPGKERELVAAISYSGGGSTYYADSVKGRFTISRDNAKNTVYLQMNSLKPEDTAVYYCAKVLTSRTQFFDYDYWGQGTQVTVSS | low polyreactivity
37 | QVQLVESGGGLVQAVGSLRLSCAASGGIFTLYVMGWYRQAPGKERELVAAISRTGGSTYYADSVKGRFTISRDNAKNTVYLQMNSLKPEDTAVYYCAALYRGGTRYGGYDYWGQGTQVTVSS | low polyreactivity
38 | QVQLVESGGGLVQAGGSLRLSCAASGRIFKVYAMGWYRQAPGKERELVASIRWNTGSTYYADSVKGRFTISRDNAKNTVYLQMNSLKPEDTAVYYCNARGYYQGRYGYWGQGTQVTVSS | high polyreactivity
39 | QDQLVESGGGLVQAGGSLRLSCADSGITFSVYAMGWYRQAPGKERELVAAISWNGGRTYYADSVKGRFTISRDNAKNTVYLQMNSLKPEDTAVYYCAAQPWIFSSRLVWTRGYGYWGQGTQVTVSS | high polyreactivity
40 | QVQLVESGGGLVQAGGSLRLSCAASGSIFKSYAMGWYRHAPWKERELVASISSRGSSTNYADSVKGRFTISRDNAKITVYLQMNSLKPEDTEGYYCAAEVYRGKYWSTYRGGDYWGQGTQVTVSS | high polyreactivity
41 | QVQLVESGGGLVQAGGSLRLSCAASGRTIYYYAMGWYRQAPGKEREFVAAISWHGGSTYYADSVKGRFTISRDNAKNTVYLQMNSLKPEDTAVYYCAADIYLRGFHYDYWGQGTQVTVSS | low polyreactivity
42 | QVQLVESGGGLVQAGGSLRLSCAASGRIFVRNAMGWYRQAPGKERELVAAISRSGGSTSYADSVKGRFTISRDNAKNTVYLQMNSLKPEDTAVYYCAARYARYQYQYDYWGQGTQVTVSS | high polyreactivity
43 | QVQLLESGGALVQAVGSLRLSCMASGSILGDRMSWYRQAPGKEHELVATIYDGGITYYADSMKGRFTISRDNAIHTVYLQMNSLRPEDTAVYYCGASLEGYRYNVYCGQGTQVTVSS | low polyreactivity
